Measured values reported in a protein production outcome set (Wang et al. 2014).

Test: label from the status in PepcDB records

For “MRASKASADESLNVFPVPADSPGSPIAGANGVPKEISLPGEARPFHLANSAFWPYVLLFVSSLTLSGCAGMVDMVRDVTRSLADIDVSGITDLFGSGEVQMSPEQIAQLEVIPSTRPGWEASVEESPAAVFLPVFGDGAVYAGGPDGRLVRFDPASGKASGVIDTKHPLAGGIGTGDGMLLVGTFKGEVLAFDEKSGKPKWTANLSTEVLSPPHAGMGVVVVRTGDGRIYGLDSESGKRKWVYQGATPSLTVRSFAGALIADDRVYAGFAGGRLVALNLSNGSLVWEAMVSRPRGATELERISDVTSLPVLDEQQVCAVAYQGRIACFDITAGNQIWTRDVSSNAGLAMDDNYVYVSENRGGIVAYDKRDGTSIWAQDLLNGLKLSAPLVHGARIVVGDSQGYVNFIRKDNGAIIARSGTDESAITARPISLPNGIAVQTRKGGVFAFGA”, the protein production was “failed”.
With “MARQSTKFSDKFLRALKPQEKPYDIREGDGFGVRVFPSGARSFFYMYHFDGKRRFLNLGKYPQLSLADARQKHRDAVSQHAKGIDPLAATQEQKRERREAITVADLIDEYVKNWAKVYKVERSATEDERALSKDVLPYWGKRKAKDIKRTDAIALLERIVRRGSPGQARNILKVGRKMYEFAIERKYVEANPFSRISKAVPATMPRTRSRVLTESEIKYIWSAIDKSAGSDETKRALKLILVTAQRPGEVIGMHRREIDGEWWTIPPERIKTEKDRTRSNSVGPQPHRVYLSPLALELIGDKDGYIFESPRGGAMDSKALSHVVHAAPLVPELVRDTEGHVFAGPCGPVAAKALMQLLEKEIAYPDKEKYYGLTRWTPHDLRRTARTRMSAINIPTRHAERVLNHTLPGIQKTYDLYRYDPQKKAALTKWAAYLEELLR” the protein production was “failed”.
For “MMDRDDDGYAERVAFYDTVYEQPERALDLAWLRRWLPPQFFGRRVLELACGSGYWTQYLAPAARAYQALDVSAGALALAGQRPGVGGVAFAVGEVETLPRPAQPFDAVFAGLWFSHLPRQRREGALAALHGCLAPGATVILLDNSEAQGGQFPVVEYDSEGNGYQSRPRHDGGQSRVLKNFPTEAEFRILLAPYGAAEIALMRREHFWLLRYRLPSRH”, the protein production was “failed”.
In the case of “PDHKMSDVDTRHVAGLMRINHTGEVCAQALYQGQALTAKLPKVRKAMEHAAEEEIDHLVWCEQRIHQLGSHTSVLNPLFYGLSFGIGAVAGVISDRVSLGFVAATEDQVCKHLGEHLEQLPIEDGKSRAILEQMLSDEEHHAE”, the protein production is reported as “failed”.
For “MFFMLFVLRIPAAFTLMMVGFLGIATVTTWDAALAMLGSELWGSFSNYGLTVIPLFILVGEIVHYAGYNNSLYHATYKWFGHKRGGLAMTTILASAAFSAISGSNTATAATMSAVAIPAMKEYKYHPLLNAGSVAAGATLGVLIPPSIVLVVYGLYTGQSIGKLFFGNVIPSAILTILILLTVVWICRRHPDWGPEGPRSGWGERFAALPEAIDILILFAIIMYALFTGVVTATEAAAVSCFLALVICGLRRKLTWKKLTGALVDTLRISCMVFMIVAGAVIFAKFLTITRLPYETAEWISSLDLPRWMVLWVILACYIIGGCIMDALAFLLVSLPIFYPLVTQLGYDPIWFGQVITIVTTMGSIMPPIGICCYVVSGMSGIPLGTVFRSGLYYMPSYIASIAILMVSPYWTVLVLADLVK”, the protein production was “failed”.
For “MFEFISLDRDGVLYIAAFLVIIRSVSLYIFSKGNNVDKANVNILMLVFFLLFMTASSLSSWPLIYFLALFFVGSIISFTWFTYSGMITPFGSGLTAISTTLLLCLLSYMLSFYETFVEHGFQAIFIAIFLFSIITSIYSFYYLPFSQNSLFYLNFKRNKKVMHIQSVSEVYSPKVTIHLPCYSEPPEIVINTLNSISALDYDNYEVIVIDNNTRDETLWKPVEKHCSMLGEKFRFYHVPVLAGAKAGALNYALKITSSDTELIAVIDADYITEPDFIRRYVKIFKDENVGFVQTSHDYYNHQSSPVMEGAYYFWTLFHKIELPSYTEINAAFTVGTMCILRRNILEKVGGWDETALTEDSELAVRMHAQGYIGYVFADTVGRGLIPTTFSDMKKQQVRWTAGPVQQLLKHWRLYFGFSSENKMTLNQRVMEIRHSTSRIKPVFSLISLHIMVVVSFFLLSGNVYLSIPYEFIVFFLCMLISTFIEKMAYFRLFNCSGILPVFYHGIMARALEWTFIYGVISSLFGFSMKWDRTNKFENSKSIKRAFLASKIEVVMSVFFFLYSFFLLSGNHSGYNDFVFLTGIACLVKGIGFLCALLVASLLENNLRILEAP”, the protein production was “failed”.
For “MLGLHGRKPAQVIVEPVAKLMIKLKVTPNQLTLVSAGLTVGVALLLIPTGHLIWAAVLTGLFAAFDMIDGTVARMQGGGTKFGATLDATCDRITDGALFGAITWWLVYSYDAPQALVAASLVCLVASQVISYVKARGEASGFTMDGGLVERPERLIVSLVGLGLTGMGVPYAIDVALWALAAGSIYTVVQRLVMAGKSPLAKEFTKAPAGAKADYSNTK”, the protein production was “failed”.
With “MPGSALKYRDLRDFLAQLERQGELKRITAPVSTRLEMTEIADRVLRAGGPALLFENARHNDAPADMPVLANLFGTPRRVAWGMGADDVGALRETGELLASLREPEAPKGLRDALAKVSMLKAALWDMSPKTVRSAACQEIVWEGADVELSRLPIQTCWPGDVAPLLAWGLVITRGPNARRQNLGIYRQQPLGPNKLIMRWLSHRGGALDFRDHAQAHPGKPFPITVALGADPATILGAVTPVPDTLSEYQFAGLLRGSRTEVVKALGSDLSVPASAEIVLEGHLLPADDPRAVAAVVPEGANPPPATGYEMALEGPYGDHTGYYNEQDWFPVFTVDRITMRRNPIYHSTYTGKPPDEPAVLGVALNEVFVPLLRRQLPEIVDFYLPPEGCSYRLAVVSIRKQYAGHAKRVMFGLWSVLRQFMYTKFIVVVDEDIDPRDWTEVVWAMTTRMDPVRDTVLVENAPIDYLDFASPVSGLGGKMGLDATNKWPGETSREWGTPIHMDEAVKRRVDAMWDTLGLLEHHHHHH” the protein production was “failed”.
In the case of “MIRAVFFDFVGTLLSVEGEAKTHLKIMEEVLGDYPLNPKTLLDEYEKLTREAFSNYAGKPYRPIRDIEEEVMRKLAEKYGFKYPENFWEIHLRMHQRYGELYPEVVEVLKSLKGKYHVGMITDSDTEYLMAHLDALGIKDLFDSITTSEEAGFFKPHPRIFELALKKAGVKGEEAVYVGDNPVKDCGGSKNLGMTSILLDRKGEKREFWDKCDFIVSDLREVIKIVDELNGQ”, the protein production is reported as “not failed”.
In the case of “MARLARLGEPFALATVVASSGSSPRKAGAKMLIRGDGSALGTVGGGHVEQDTLAAARASLAEGAPRTLEFVLTEEHGYACGGSMSVFIEPQGRRPLLVMFGAGHVGRAVTALAHGCGFRVIVVDERPEYAVPALLPGADEIVCVPVGAAFARLTLDRESFAVIATPGHVHDFDAVRGCLATEVGFIGLLGSRRKREALMKTLTEEGYEAGRQARVVTPVGLDIGAQTPEEIAVSIVGQLVKLRRQA”, the protein production is reported as “failed”.
In the case of “MNKGILIVLLAGLVSACTHKEKNPLDSLPDMSAVRANLAFTCVHEADHLPPLDPEADQLFQYGRYLQKKEGPKNFNEVARYYRIAAAYGHYKANSNLQGLVSQGIADSPDAPKETIDLAAQLVNQGIPGGYYDIGHYLELGYGLKQDPEMALRYIRKAADLGNPDAQFYVAEKLAPIDNAPAIARQMWQCATDQGHGRAALTLGVDLKTDKLYPDAAKAFQQGAKSGSSTAALSLRDAFHNPSQSDQLNYLAVPHDPERSRRYGLIWKFLKDNDGRSPKVPDIDKIVPLPPAKLPPWDGTFQWEKDQAAAVPPQKPSDELIERLSKAKHLDPATGLPLAKPEQVAQMETEAAPPPARLPLGTIARTGDSCPQDGVWCVSLAKGMVADAEQSFLKGMELPSLTIYQPRRFAWMDNWMGVRQQTVPVAWKLVGYIHEA”, the protein production is reported as “failed”.
With “MWPQDPSRKEVLRFAVSCRILTLMLQALFNAIIPDHHAEAFSPPRLAPSGFVDQLVEGLLGGLSHWDAEHFLFIAEHGYLYEHNFAFFPGFPLALLVGTELLRPLRGLLSLRSCLLISVASLNFLFFMLAAVALHDLGCLVLHCPHQSFYAALLFCLSPANVFLAAGYSEALFALLTFSAMGQLERGRVWTSVLLFAFATGVRSNGLVSVGFLMHSQCQGFFSSLTMLNPLRQLFKLMASLFLSVFTLGLPFALFQYYAYTQFCLPGSARPIPEPLVQLAVDKGYRIAEGNEPPWCFWDVPLIYSYIQDVYWNVGFLKYYELKQVPNFLLAAPVAILVAWATWTYVTTHPWLCLTLGLQRSKNNKTLEKPDLGFLSPQVFVYVVHAAVLLLFGGLCMHVQVLTRFLGSSTPIMYWFPAHLLQDQEPLLRSLKTVPWKPLAEDSPPGQKVPRNPIMGLLYHWKTCSPVTRYILGYFLTYWLLGLLLHCNFLPWT” the protein production was “failed”.
For “MRRFLVLLWLLSLALAAPRLVVEPEDGVKPLLDLIASAREEILVKMYLWTPSRMDVVEALGEAARRGVRVRVLLEREPSGGRVDLEVFQALKARGVEVRLTTPFRFVFVHEKSLVVDRKRAWVGTMNLTGSSFAANREYALILDDPAQVAEIAKVFEADWEGERLDLSQALLVWAPSRVLGGVKEGNARETLLALIRGAQRELFLEHQAMADPEVEAALKEALGRGVRVRLLGSPKEPGDTYFLAGALRLKEAGALVRFLPDPYVHAKVLVRDGEEALLGSLNLSANSIQANRELAVRFTAREAPEAFRRLLFVMEGDWEKALPENPFALPPVEGVIPWQEAPRYFGRVATVEGVIQAVEDRGTVAFLKFGPGESDLRLVVFPRSYGLFAQPFPQSYLGKKVRARGRIVLYAGYYEIVLEGPENLEVLDGGP”, the protein production was “failed”.
With “MPHELSWGDIYFSPTLLVLFLAVTATWITVMILNKTRLSRFIAFPSLTFIAIMVGYVVAIDSFYIQF” the protein production was “failed”.
For “MSDFEKQLWKAADKLRKNIDAAEYKHIVLGLIFLRYISDAFEELYEKLQQGEGEYAGADPEDRDEYKAENVFFVPAISRWPYLQSEAKKPDIGKSVDNAMDAIEKENPLLRGVLPKVFARGNLDPTNLGGLIDLVSNVALGDAKSRSADVLGHVFEYFLGEFALAEGKKGGQFYTPRSVVELLVEMLEPYNGRVFDPCCGSGGMFVQSEKFVADHQGKINDISIYGQESNQTTWRLAKMNLAIRSIDSSQVKWNNEGSFLNDVHKDLKADYVIANPPFNDSDWSGDLLRKDGRWKYGVPPAGNANYAWIQHFLYHLGPSGQAGFVLAKGSLTSKSSGEGDIRKELVEARLVDCIVNLPPKLFLNTQIPASLWFLSRNKANGKHRNRTDEILFIDARNMGHLINRRTREFSPEDIQQIAGTYHKWRNPEGNYEDVKGFCNSAPIERVRELGYVLTPGRYVGLPDDEDNFDFNERFSALKAEFEEQLKEEERLNLRIAENLKKVKPA”, the protein production was “failed”.
For “MTNTHEINALKKYVRATNFLATSQIYLKQNVLHKRPLAHSDIKPRLLGHWGTCPGINFVYANINRLIVKHNRPFIYLVGPGHGFPAVQANLFIEGSLSHFYPETIPYNETGIEDICKKFSAAYGYPSHANPEAPGQILEGGELGYSLSVGWGAVLDNPDLIATVLVGDGESETGPLAASWYANRLVSPATNGAVLPIVHINGYKISGPTRMGRMSHEELDLEFRGLGYHPIIVDSEAEEDVYIQMATAMDTAYSMINDIQTRARKGEDIVK”, the protein production was “failed”.
In the case of “MAQHFLLTQKAKTLSAFEIANISEAEAFDLLCEARWGSKENVVCSKCGVQHKAYFISIRKQWRCKHCHHTFSVTSGTIFANHKLPLKTYLYILIRFVNAVKGVSALEISRDAKINYRTAFVLCHKLRKALLESRDMQPLSGEVDMGGTYIHPAPRKANKKADRIDYRLKENQNPNKRCVVVAREHFSADEKAENSLYRGAKRSHVFVTYSETQSVVKNFAHAYIEKNSRINTDENTAYESLLLDYDLRTVNHKDEYRSDFGVTNNQAESFFSRFKRMYYGHVHKMSNTYLLNYANEIAYREDNRRKPNGWQFHDILGKCLETTNEQNEWCGYWQRKIFHQEVIWQ”, the protein production is reported as “failed”.
In the case of “MHPSLKYMRKDRLPHIFCSGCGNGIVLNCFTNALDKLALKNEDYIAISGIGCSSRVPGYLFCDSLHTTHGRPIAFALGTKVIQNDKKVVVFTGDGDLSAIGGNHFIHGCRRNIDITVICINNNIYGMTGGQCSPTTPHEKKATTAPYGNPENPLDLCELAKAAGATYVARWTTANPIQLANSIKKGMDKKGFSFIEVVSQCPTYYGRFNVSRKPSEMMKNLKESAITVRKAESMEKEELLNKIVVGEFLNIEKPEYVEQLKKLQE”, the protein production is reported as “failed”.
For “MATQYGALSYSSRTQSPARVMTRVMVEARRVLLGALATAAVVAFMSAVGWVALLALTVTIPFATIVVALAMAIRHFRQDRRALA”, the protein production was “failed”.
